These results are taken from patent publication US20130089516A1.

Several values for one entry are separate records, joined by “and”; a condition that tells them apart may be missing. Equal values may be shown once.

Assay [1] has as its target mouse IL-2/IL-2Rα fusion proteins (2× and 4× linker lengths). The experiment in a line: sandwich ELISA (JES6-1A12 capture, JES5H4 detection by the general methods), PSA-treated against buffer-treated fusion protein. (In general: An ELISA detects its analyte on a solid surface through an enzyme-linked reagent.)
For assay [2], the target named is IL-2 portion of the mouse IL-2/IL-2Rα fusion proteins (mouse) (UniProt P04351). Description: cell-based or functional assay.
For assay [3], the target named is recombinant human IL-2 (Peprotech) (human) (UniProt P60568). Description: modified phage ELISA, human IL-2 coated; 2 µg/ml MQ1-17H12 added, then scFv-2 phage (competitor).
Sequence of recombinant human IL-2 (Peprotech) (human) (P60568 21-153 limits assumed): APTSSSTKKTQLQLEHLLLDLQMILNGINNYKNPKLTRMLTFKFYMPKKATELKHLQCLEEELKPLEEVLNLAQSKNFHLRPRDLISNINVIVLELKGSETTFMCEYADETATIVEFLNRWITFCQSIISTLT

Sequence of IL-2 portion of the mouse IL-2/IL-2Rα fusion proteins (mouse) (P04351 21-169 limits assumed): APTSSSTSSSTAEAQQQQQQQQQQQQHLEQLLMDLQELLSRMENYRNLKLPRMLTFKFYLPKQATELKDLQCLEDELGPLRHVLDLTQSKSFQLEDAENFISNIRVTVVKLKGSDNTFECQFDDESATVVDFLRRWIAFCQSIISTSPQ

In the case of “rat anti-mouse IL-2 monoclonal antibody JES6-1A12 (BD Pharmingen)”, the fold increase in the apparent amount of IL-2 detected after PSA cleavage in assay [1] is 2 fold and 4 fold. “IL-2Rα portion of the mouse IL-2/IL-2Rα fusion proteins (soluble form of the alpha chain of the IL-2 receptor) (from UniProt P01590 22-236)”: in assay [2], the attenuation of IL-2 biologic activity in the intact uncleaved fusion protein against the equivalent amount of free IL-2, CTLL-2 bioassay is more than 60 fold; the increase of biologically active IL-2 after PSA cleavage of the fusion protein with the 2× linker, CTLL-2 / MTT assay was determined as 3.5 fold; the increase of biologically active IL-2 after PSA cleavage of the fusion protein with the 4× linker, CTLL-2 / MTT assay came out at 9 fold. Regarding “neutralizing anti-human IL-2 monoclonal antibody MQ1-17H12 (eBioscience)”, the percent blocking of scFv-2 phage binding in assay [3] came out at 70%.
